Results: patent publication US20070015228A1 (Genentech, published 2007)

B1: humanized 2H7 variant v511 (antibody, human IgG1, kappa, V domains shown)
VH: EVQLVESGGGLVQPGGSLRLSCAASGYTFTSYNMHWVRQAPGKGLEWVGAIYPGNGATSYNQKFKGRFTISVDKSKNTLYLQMNSLRAEDTAVYYCARVVYYSYRYWYFDVWGQGTLVTVSS
VL: DIQMTQSPSSLSASVGDRVTITCRASSSVSYLHWYQQKPGKAPKPLIYAPSNLASGVPSRFSGSGSGTDFTLTISSLQPEDFATYYCQQWAFNPPTFGQGTKVEIKR
notes: also called 2H7.v511
B2: humanized anti-CD20 antibody 2H7.v16 (antibody, human IgG1, kappa)
heavy: not shown
light: DIQMTQSPSSLSASVGDRVTITCRASSSVSYMHWYQQKPGKAPKPLIYAPSNLASGVPSRFSGSGSGTDFTLTISSLQPEDFATYYCQQWSFNPPTFGQGTKVEIKRTVAAPSVFIFPPSDEQLKSGTASVVCLLNNFYPREAKVQWKVDNALQSGNSQESVTEQDSKDSTYSLSSTLTLSKADYEKHKVYACEVTHQGLSSPVTKSFNRGEC
notes: Human IgG1, expressed in 293 cells; also called humanized anti-CD20 IgG; humanized 2H7
B3: anti-idiotypic antibody 8A3 (antibody, V domains shown)
VH: QVQLQQSGAELAKPGASVKMSCKASGYNFTTYWMHWVKQRPGQGLEWIGYINPSTDYTEYNQKFKYKATLTADKSSSTAYIQLSSLTSEDSAVYYCARWWDYDWYFDVWGAGTPLTVSS
VL: DIVMTQSQEFMSTSVGDRVSVTCKASQTVDTNVAWYQQKLGQSPKPLIYSASYRCSGVPDRFTGSGSRTDFTLTITNVQSEDLAEYFCQQYHSFPWTFGGGTKVEIKR
notes: Murine monoclonal antibody raised against 2H7.v16; It was biotinylated when used as detection antibody and unlabeled when coated; also called MAb 8A3; 8A3-bio

Tests used:
[1] = target: B3; assay: sandwich ELISA in mouse serum, 8C5 coat + 2H7 + 8A3-bio; the signal needs binding to both 8C5 and 8A3
[2] = target: B3; assay: ELISA, plate coated with 8A3, serially diluted antibody, detection with goat anti-human IgG Fc-HRP
[3] = target: T1, humanized anti-CD20 antibody 2H7.v31; assay: ELISA, 8A3 coated on plate, anti-human IgG Fc-HRP detection
T1 construct: The L chain is the same as for 2H7.v16

[4] = target: B2; assay: as above
[5] = target: B1; assay: sandwich ELISA, 8C5 coat, biotinylated 8A3 detection, mouse serum

B1
binding result [1]: binds

B2
binding result [2]: binds

B3
binding result [3]: binds
binding result [4]: binds
binding result [5]: binds
